# Laboratory results taken from the supplement of paper PMC9112550, “Optimization of the antimicrobial peptide Bac7 by deep mutational scanning” (BMC Biology, 2022).
# Test system: Escherichia coli TOP10
# Assay: shrunken log2 fold change of peptide-encoding DNA abundance (4.5 h post-induction vs induction); higher = less antimicrobial activity (less host growth inhibition)
# Details: time post-induction: 4.5 h; library: site-saturation at positions 5, 18, 19, 20
# 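Further: peptides expressed intracellularly from a pBAD plasmid library in pooled LB shake-flask culture, induced with 0.3% L-arabinose, DNA abundance read by NGS, three biological replicates, DESeq2 with apeglm shrinkage.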
row,Sequence,shrunken log2 fold change
1,RRIRIRPPRLPRPRPRPKDFPRP,-0.457
2,RRIRMRPPRLPRPRPRPWREPRP,0.189
3,RRIRFRPPRLPRPRPRPIHQPRP,-0.237
4,RRIRCRPPRLPRPRPRPMFFPRP,-0.399
5,RRIRERPPRLPRPRPRPLPTPRP,-0.0242
6,RRIRIRPPRLPRPRPRPGSGPRP,0.166
7,RRIRWRPPRLPRPRPRPRINPRP,0.0839
8,RRIRERPPRLPRPRPRPSIWPRP,-0.0411
9,RRIRMRPPRLPRPRPRPREYPRP,0.314
10,RRIRQRPPRLPRPRPRPWFGPRP,-0.352
11,RRIRLRPPRLPRPRPRPSIWPRP,-0.548
12,RRIRCRPPRLPRPRPRPVVNPRP,-0.18
13,RRIRSRPPRLPRPRPRPPVSPRP,0.308
14,RRIRERPPRLPRPRPRPECVPRP,0.162
15,RRIRIRPPRLPRPRPRPCTQPRP,-0.361
16,RRIRWRPPRLPRPRPRPPQAPRP,0.733
17,RRIRLRPPRLPRPRPRPDHIPRP,-0.221
18,RRIRIRPPRLPRPRPRPFHVPRP,-0.121
19,RRIRPRPPRLPRPRPRPEWKPRP,-0.00168
20,RRIRIRPPRLPRPRPRPISEPRP,-0.492

row,Sequence,shrunken log2 fold change
1,RRIRGRPPRLPRPRPRPQSVPRP,-0.199
2,RRIRERPPRLPRPRPRPKNFPRP,-0.311
3,RRIRIRPPRLPRPRPRPCQCPRP,-1.17
4,RRIRMRPPRLPRPRPRPSFEPRP,0.318
5,RRIRMRPPRLPRPRPRPCVSPRP,-0.0589
6,RRIRARPPRLPRPRPRPVLMPRP,0.199
7,RRIRCRPPRLPRPRPRPSANPRP,0.0237
8,RRIRWRPPRLPRPRPRPNQWPRP,0.223
9,RRIRRRPPRLPRPRPRPTPDPRP,0.72
10,RRIRVRPPRLPRPRPRPSAFPRP,0.0827
11,RRIRHRPPRLPRPRPRPIMCPRP,-0.245
12,RRIRDRPPRLPRPRPRPQTCPRP,0.0864
13,RRIRARPPRLPRPRPRPWAMPRP,0.0453
14,RRIRCRPPRLPRPRPRPAWWPRP,0.902
15,RRIRERPPRLPRPRPRPRWHPRP,0.0135
16,RRIRKRPPRLPRPRPRPSMHPRP,0.401
17,RRIRVRPPRLPRPRPRPCYAPRP,-0.162
18,RRIRMRPPRLPRPRPRPHLSPRP,-0.0805
19,RRIRDRPPRLPRPRPRPWVSPRP,-0.0385
20,RRIRSRPPRLPRPRPRPRDCPRP,0.686

row,Sequence,shrunken log2 fold change
1,RRIRSRPPRLPRPRPRPNGIPRP,0.033
2,RRIRWRPPRLPRPRPRPRAEPRP,0.621
3,RRIRIRPPRLPRPRPRPHQWPRP,-0.246
4,RRIRMRPPRLPRPRPRPNTRPRP,0.371
5,RRIRPRPPRLPRPRPRPMGTPRP,0.0218
6,RRIRPRPPRLPRPRPRPDHMPRP,-0.33
7,RRIRKRPPRLPRPRPRPPEFPRP,0.0984
8,RRIRCRPPRLPRPRPRPEDHPRP,-0.0393
9,RRIRPRPPRLPRPRPRPDWAPRP,0.0079
10,RRIRGRPPRLPRPRPRPMKFPRP,0.0112
11,RRIRKRPPRLPRPRPRPKYPPRP,0.0162
12,RRIRRRPPRLPRPRPRPDDRPRP,0.0215
13,RRIRFRPPRLPRPRPRPKDWPRP,0.233
14,RRIRPRPPRLPRPRPRPNYSPRP,-0.39
15,RRIRDRPPRLPRPRPRPTKYPRP,-0.286
16,RRIRKRPPRLPRPRPRPHERPRP,0.231
17,RRIRMRPPRLPRPRPRPPHIPRP,-0.0498
18,RRIRLRPPRLPRPRPRPNFFPRP,0.247
19,RRIRYRPPRLPRPRPRPAEHPRP,-0.0954
20,RRIRSRPPRLPRPRPRPMCEPRP,-0.0274
